Measured values as given in patent US20090004644 (Conceptual MindWorks, Inc, published 2009).

Key:
[1] = target: Botulinum neurotoxin type B light chain (UniProt B1INP5 B1INP5:2-441)
[2] = target: Botulinum neurotoxin type B heavy chain (UniProt B1INP5 B1INP5:442-1291)
[3] = target: Botulinum neurotoxin type A light chain (UniProt P0DPI1 P0DPI1:2-448)
[4] = target: Botulinum neurotoxin type A heavy chain (UniProt P0DPI1 P0DPI1:449-1296)
Chain of Botulinum neurotoxin type A heavy chain (P0DPI1 449-1296, one chain of several): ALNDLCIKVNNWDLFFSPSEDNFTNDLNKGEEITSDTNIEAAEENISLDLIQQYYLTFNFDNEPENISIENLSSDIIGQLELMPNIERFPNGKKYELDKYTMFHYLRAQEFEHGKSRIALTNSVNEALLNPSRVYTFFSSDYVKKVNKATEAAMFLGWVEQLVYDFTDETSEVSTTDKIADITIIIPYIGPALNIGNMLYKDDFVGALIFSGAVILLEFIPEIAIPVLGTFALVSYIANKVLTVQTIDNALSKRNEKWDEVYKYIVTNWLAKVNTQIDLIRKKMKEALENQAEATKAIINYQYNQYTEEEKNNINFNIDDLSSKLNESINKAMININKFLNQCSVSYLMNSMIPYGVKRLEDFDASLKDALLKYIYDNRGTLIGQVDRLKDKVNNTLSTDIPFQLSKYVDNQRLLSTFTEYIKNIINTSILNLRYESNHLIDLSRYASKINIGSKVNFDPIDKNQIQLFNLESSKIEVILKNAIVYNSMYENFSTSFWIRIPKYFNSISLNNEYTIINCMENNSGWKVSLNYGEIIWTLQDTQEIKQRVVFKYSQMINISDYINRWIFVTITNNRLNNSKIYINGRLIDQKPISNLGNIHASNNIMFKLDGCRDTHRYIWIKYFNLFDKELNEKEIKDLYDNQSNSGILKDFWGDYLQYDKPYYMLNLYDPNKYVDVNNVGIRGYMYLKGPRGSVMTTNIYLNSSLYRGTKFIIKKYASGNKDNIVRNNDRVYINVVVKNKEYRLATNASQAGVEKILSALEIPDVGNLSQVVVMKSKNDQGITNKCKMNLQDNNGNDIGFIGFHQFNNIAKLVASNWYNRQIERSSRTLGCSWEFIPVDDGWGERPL

Chain of Botulinum neurotoxin type B heavy chain (B1INP5 442-1291, one chain of several): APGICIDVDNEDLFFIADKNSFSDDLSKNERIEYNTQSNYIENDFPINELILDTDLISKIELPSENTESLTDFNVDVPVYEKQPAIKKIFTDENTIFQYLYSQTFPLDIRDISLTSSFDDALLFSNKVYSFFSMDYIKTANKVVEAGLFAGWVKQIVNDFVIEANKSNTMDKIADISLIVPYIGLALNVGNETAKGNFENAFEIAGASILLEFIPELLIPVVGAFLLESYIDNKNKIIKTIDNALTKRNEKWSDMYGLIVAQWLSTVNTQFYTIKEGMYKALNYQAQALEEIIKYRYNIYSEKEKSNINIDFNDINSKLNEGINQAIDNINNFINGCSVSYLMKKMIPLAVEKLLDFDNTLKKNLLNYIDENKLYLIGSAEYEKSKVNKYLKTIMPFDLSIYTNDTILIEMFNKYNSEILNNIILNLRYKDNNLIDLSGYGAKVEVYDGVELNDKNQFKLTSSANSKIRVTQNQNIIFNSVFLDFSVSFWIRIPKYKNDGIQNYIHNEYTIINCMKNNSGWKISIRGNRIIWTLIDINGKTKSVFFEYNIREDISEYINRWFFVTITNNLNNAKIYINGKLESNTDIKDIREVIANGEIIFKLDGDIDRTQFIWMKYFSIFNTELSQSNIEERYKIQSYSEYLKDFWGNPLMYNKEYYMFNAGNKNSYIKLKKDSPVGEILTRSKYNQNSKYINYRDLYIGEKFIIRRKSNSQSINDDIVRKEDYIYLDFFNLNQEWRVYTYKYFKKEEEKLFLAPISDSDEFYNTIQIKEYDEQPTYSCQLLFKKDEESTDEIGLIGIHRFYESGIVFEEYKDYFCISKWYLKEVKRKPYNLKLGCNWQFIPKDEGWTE
Chain of Botulinum neurotoxin type B light chain (B1INP5 2-441, one chain of several): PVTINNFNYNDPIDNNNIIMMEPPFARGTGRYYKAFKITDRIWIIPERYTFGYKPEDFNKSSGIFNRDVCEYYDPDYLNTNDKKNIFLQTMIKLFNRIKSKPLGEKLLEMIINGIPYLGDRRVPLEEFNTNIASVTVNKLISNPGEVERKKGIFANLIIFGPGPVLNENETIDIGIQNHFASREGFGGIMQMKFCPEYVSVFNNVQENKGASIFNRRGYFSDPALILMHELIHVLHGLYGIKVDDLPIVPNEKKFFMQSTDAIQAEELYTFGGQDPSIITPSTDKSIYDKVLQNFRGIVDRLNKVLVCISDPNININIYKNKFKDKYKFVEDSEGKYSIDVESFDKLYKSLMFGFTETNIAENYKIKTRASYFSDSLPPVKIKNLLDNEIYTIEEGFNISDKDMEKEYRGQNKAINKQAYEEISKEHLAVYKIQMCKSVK
Chain of Botulinum neurotoxin type A light chain (P0DPI1 2-448, one chain of several): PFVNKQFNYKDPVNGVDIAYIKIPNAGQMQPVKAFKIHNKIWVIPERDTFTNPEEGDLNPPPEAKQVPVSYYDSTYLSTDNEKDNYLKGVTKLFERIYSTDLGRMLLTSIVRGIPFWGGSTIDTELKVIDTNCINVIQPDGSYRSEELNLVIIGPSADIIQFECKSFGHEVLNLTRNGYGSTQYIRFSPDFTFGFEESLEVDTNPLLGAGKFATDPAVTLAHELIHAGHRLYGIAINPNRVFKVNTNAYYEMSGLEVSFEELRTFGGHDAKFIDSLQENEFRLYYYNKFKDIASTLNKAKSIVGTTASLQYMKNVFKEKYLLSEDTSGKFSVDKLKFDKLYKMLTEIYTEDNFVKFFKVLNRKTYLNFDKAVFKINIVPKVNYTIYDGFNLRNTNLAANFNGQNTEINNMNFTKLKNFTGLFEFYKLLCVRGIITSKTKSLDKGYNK

B1: LCB 2(+) (DCE-2) (ssDNA)
DNA: AGTCTAGAGGGCCCCAGAATTATCCACTAGCGGGAAGTAGTACATCTCACCCAGCAAAGGATGCAGGGGT
Question: Does B1 bind [1]?
Answer: Result: binds

B2: 3(+) SELEX LCA aptamer (DCE-3) (ssDNA)
DNA: CATCCGTCACACCTGCTCTGGGGATGTGTGGTGTTGGCTCCCGTATCAAGGGCGAATTCT
Question: Which results are given for B2?
Answer: binding result [1]: binds; binding result [2]: binds; binding result [3]: binds; binding result [4]: binds

B3: LCA 1(+) (DCE-1) (ssDNA)
DNA: AGTCTAGAGGGCCCCAGAATACACCCGACAACTAGATACCCATCAAAAGTCCAGCAAAGGATGCAGGGGT
Question: What does the source list for B3?
Answer: binding result [2]: no binding; binding result [3]: binds; binding result [4]: no binding

B4: 4(+) SELEX holotoxin aptamer (DCE-4) (ssDNA)
DNA: CATCCGTCACACCTGCTCTGCTATCACATGCCTGCTGAAGTGGTGTTGGCTCCCGTATCA
Question: What does the source list for B4?
Answer: binding result [2]: binds; binding result [4]: binds
